Source: the DeepSol protein solubility set

Assay: soluble on expression in E. coli; label from the status in PepcDB or PDB records

Row | Sequence | soluble on expression in E. coli
1 | MRRTLHNELQELRGNIRVYCRIRPALKNLENSDTSLINVNEFDDNSGVQSMEVTKIQNTAQVHEFKFDKIFDQQDTNVDVFKEVGQLVQSSLDGYNVCIFAYGQTGSGKTFTMLNPGDGIIPSTISHIFNWINKLKTKGWDYKVNCEFIEIYNENIVDLLRSDNNNKEDTSIGLKHEIRHDQETKTTTITNVTSCKLESEEMVEIILKKANKLRSTASTASNEHSSRSHSIFIIHLSGSNAKTGAHSYGTLNLVDLAGSERINVSQVVGDRLRETQNINKSLSCLGDVIHALGQPDSTKRHIPFRNSKLTYLLQYSLTGDSKTLMFVNISPSSSHINETLNSLRFASKVNSTRLVSRK | soluble
2 | MRRVLFSCFCGLLWSSSGWAVDPLGTININLHGNVVDFSCTVNTADIDKTVDLGRWPTTQLLNAGDTTALVPFSLRLEGCPPGSVAILFTGTPASDTNLLALDDPAMAQTVAIELRNSDRSRLALGEASPTEEVDANGNVTLNFFANYRALASGVRPGVAKADAIFMINYN | not soluble
3 | MRSKRFEALAKRPVNQDGFVKEWIEEGFIAMESPNDPKPSIKIVNGAVTELDGKPVSDFDLIDHFIARYGINLNRAEEVMAMDSVKLANMLCDPNVKRSEIVPLTTAMTPAKIVEVVSHMNVVEMMMAMQKMRARRTPSQQAHVTNVKDNPVQIAADAAEGAWRGFDEQETTVAVARYAPFNAIALLVGSQVGRPGVLTQCSLEEATELKLGMLGHTCYAETISVYGTEPVFTDGDDTPWSKGFLASSYASRGLKMRFTSGSGSEVQMGYAEGKSMLYLEARCIYITKAAGVQGLQNGSVSCIGVPSAVPSGIRAVLAENLICSSLDLECASSNDQTFTHSDMRRTARLLMQFLPGTDFISSGYSAVPNYDNMFAGSNEDAEDFDDYNVIQRDLKVDGGLRPVREEDVIAIRNKAARALQAVFAGMGLPPITDEEVEAATYAHGSKDMPERNIVEDIKFAQEIINKNRNGLEVVKALAQGGFTDVAQDMLNIQKAKLTGDYLHTSAIIVGDGQVLSAVNDVNDYAGPATGYRLQGERWEEIKNIPGALDPNEID | soluble
4 | MRSMNTHAVLQFLSGNGIAILQFFHQLILQGKTQDDLTRDYALDRAWVGSVMKLAKELFDPRPSPSRDECISVAKELGLGIEVLKAINPALGRLNKKASMTKDDLRLRLYREARGMTPAEAKAHANTRVVALNDACGATPRKPAVRISKSTDAAGQRHIHASLDDATASAVAEKLHAGARWLTKKTPSLSYSQAMAEIFAIAILDSPALGGRKRREGLILLPADGYTHRGNGMLATTDGSLIPAHKLAEHLLEEYGYAMLYALNDEGVPEPVDLYRTKRYANDKQRLMITADQLTCSHPDCHRLANNSHIHHCTAWERGGETNVKNLVAACATHNRRNDDDPERHKNGYFRRMPHSGCAGFQPADPSLPPRRTRVPFAAYSARVWACDHFGVTV | not soluble
5 | MRSMTLEQLRTASETGGVSSVTLKGQGGAFLVQINTRSGVAAILTKARNSEPRRFGNPAAALNVLREVGITIGQFDASEWNPDEREPVARSSDNRAKALHKAHEAAAYNEWLAAEIQEAIDDPRPGIPHDEVMARMDARIVRHKAAGAKRA | not soluble
6 | MRSPYLIGVFLAAGKSRRMGQNKLALPLKGENIGSLSLKTALSSRLDHVLVVERTEHASLEWIGAPYHAPPFQKRWSLHVCQDAEKGQGHSVSSGVRKAESMGADGIVILLADQPQLSVDHLNALVALAPESFAVSSFLGAFTPPIYFSSTCFPYVKGLKGDEGARRLLKSGQLGAGAVLEAKDSGELDDIDTPRGILEHHHHHH | not soluble
7 | MRSRVLWGAARWLWPRRAVGPARRPLSSGSPPLEELFARGGPLRTFLERQAGSEAHLKVRRPELLAVIKLLNEKEQELRETEHLLHDENEDLRKLAENEITLCQKEITQLKHQIILLLVPSEETDENDLILEVTAGVGGQEAMLFTSEIFDMYQQYAAFKRWHFETLEYFPSELGGLRHASASIGGSEAYRHMKFEGGVHRVQRVPKTEKQGRVHTSTMTVAILPQPTEINLVINPKDLRIDTKRASGAGGQHVNTTDSAVRIVHLPTGVVSECQQERSQLKNKELAMTKLRAKLYSMHLEEEINKRQNARKIQIGSKGRSEKIRTYNFPQNRVTDHRINKTLHDLETFMQGDYLLDELVQSLKEYADYESLVEIISQKV | soluble
8 | MRSYDFSPLYRATVGFDRIADLMDRVMTSEVAQPTYPPYNIEKTAENAYRISIAVAGFTPDELAVEVKENTLHVGARKAADEAERTYLHRGIATRAFERRFALADHVRVSGATHEHGMLHIDLVRETPEALKPRRIEIARGDLGGTRSIEAVKEPVEA | not soluble
9 | MRTAVIIPFYQREAGILSRALDSVDGQILPEGHSLTVFVIDDESPVSARSEVEGRQGKVPVRLIAQKNGGPGAARNAGLDAVAAEGFDHVAFLDSDDIWQPTHLADALDLLARGYDFHFCDHQRTDDDITYFERTPALRRMREERHAGVTVLDAEAPILAFDQPSIMAASVDTYLSQTSTVVVRQSFVETLRFDPRLRNAGEDQLFWLSLIAAGARTVVSWKMNVLCGRGVNVYFDAFDWKSTKVVDRTGYMLMFFHTVGRRLSLTASDRRTVADRIRRYRRAYSYLFLRALLQGRVPTLSLTWKLAALDPGLVPAMPLRFLAVLPNREAESLQWLEHHHHHH | not soluble
10 | MRTHTGKIPDHFVPRISMTEEQRRVVFMLNSLLLDYPEEGFVDKLNAVEAQLDVLPLPVAAHVVEFLDAARVAGLRAMQEAYVETFDQRRRCSLFLTYYAVGDTRQRGTAILTFRQTLQQLGFESERDELPDHLCVVLEAAALADSSLFDAATQVLSAHRDGIEVLRAALDNLDSPYRYLIMSLCQALPEIDEETANSYMELIRSGPPAEMVGIGTPLPFPTSQPDIH | not soluble
11 | MRVKTIMTQNPVTITLPATRNYALELFKKYKVRSFPVVNKEGKLVGIISVKRILVNPDEEQLAMLVKRDVPVVKENDTLKKAAKLMLEYDYRRVVVVDSKGKPVGILTVGDIIRRYFAKSEKYKGVEIEPYYQRYVSIVWEGTPLKAALKALLLSNSMALPVVDSEGNLVGIVDETDLLRDSEIVRIMKSTELAASSEEEWILESHPTLLFEKFELQLPNKPVAEIMTRDVIVATPHMTVHEVALKMAKYSIEQLPVIRGEGDLIGLIRDFDLLKVLVKSKA | soluble
12 | MRVLVTGGAGFIGSHIVEDLLARGLEVAVLDNLATGKRENVPKGVPFFRVDLRDKEGVERAFREFRPTHVSHQAAQASVKVSVEDPVLDFEVNLLGGLNLLEACRQYGVEKLVFASTGGAIYGEVPEGERAEETWPPRPKSPYAASKAAFEHYLSVYGQSYGLKWVSLRYGNVYGPRQDPHGEAGVVAIFAERVLKGLPVTLYARKTPGDEGCVRDYVYVGDVAEAHALALFSLEGIYNVGTGEGHTTREVLMAVAEAAGKAPEVQPAPPRPGDLERSVLSPLKLMAHGWRPKVGFQEGIRLTVDHFRGAV | soluble
13 | MRVRGIYATALVALALKKGYLLSDLSKTMLSRVEVPVSTRPPNITVKHGEESRDEIVIHAFPYEAGERFEADLLEEVGHAAVRRSLLGLRSVVDARAAEGCRAEGPGGVLIIVKGGECPQPGSMVRVTVVRSPPGSDVVEGRVGVELTGLTVRVMHPGSGVRISRHLTSEDAAKALKAVEASGIDLNQFSVHIRSGARLASEGDISDEIRRLAREAERLWREGPGGEPAVLSRGEYLSLVYLPSTAKHVMDGLRTSLYPTVNNHHSLKSWSSEAEGLLTDFAEEGVREGLWGGEAGDLIVRFISSRLVGRTAVVLHRRPDGETIRLGPFRVSSYRPSSGRGGEIVLERTFRSPGVYDGLGLERRPGDRGVTHVYMGDWLTIHEYYDKSGRLLGVYANINTPPEVGFQGLKYLDLLVDVVKRPGEEPETIDQGELEKACRSGLLTDRLCEEAARQAERASGLLQSRYP | not soluble
14 | MRYALAACLLLLAASSFVDAKKKKIADDELGELLDNIDADEEKKSVEPAKNPCEDHQCGWGKECVVGKKGEPTCECISKCPELDGDPMDKVCANNNQTFTSLCDLYRERCLCKRKSKECSKAFNAKVHLEYLGECKKLDECTEEHMAQFPERMADWLFQVMKELKKRRELHKLEWEELLSEAENDDEKKHVYPVIWKFCELDTKPHDKSVSHHELIPITAPVIPMESCIKPFLEGCDANNDGNISIKEWGKCLGLKEGEIQERC | not soluble
15 | MSAAAAPDTARSGRWRVDTDPERVERDLTCLVLTLVELVRQLVERQCVRRMDQGDLSDEQIETLGLTLMRLEEAMTELCERFDLSPSDLNLDLGPLGTLLPVD | not soluble
16 | MSAAASMFVRQFFHGTRADLSPGELIVVGYQSNFTTAAPLSWVYFSGTLDAAIWGAELAAGDAPQRIYVVEPTGPFEDDPNLTDKKFPGNPTLSYRSKHPLRIVAEMTKWQGHSPERVQQMKDGLARLSAEGAEIID | not soluble
17 | MSAEAAAVEVQANEAPIVAPIMYKVESSDGQVYEISDEAVKQSNTLSNLISTCVANDVASMDPIPITNVTGNIMKMVIEWCEKHKGETLPVEDDSVPKNITVPEWDTNFLKIDNDVLFDLIVASNFLDVPGLMSYACKMVANMAIGKSPDEMRVLFAIPTDEEDEAAEKAAKEKAEAEKKAITEKDAAEPSTSK | soluble
18 | MSAFQAFVVNKTETEFTAGVQTISMDDLPEGDVLVRVHYSSVNYKDGLASIPDGKIVKTYPFVPGIDLAGVVVSSQHPRFREGDEVIATGYEIGVTHFGGYSEYARLHGEWLVPLPKGLTLKEAMAIGTAGFTAALSIHRLEEHGLTPERGPVLVTGATGGVGSLAVSMLAKRGYTVEASTGKAAEHDYLRVLGAKEVLAREDVMAERIRPLDKQRWAAAVDPVGGRTLATVLSRMRYGGAVAVSGLTGGAEVPTTVHPFILRGVSLLGIDSVYCPMDLRLRIWERLAGDLKPDLERIAQEISLAELPQALKRILRGELRGRTVVRLA | soluble
19 | MSAGKIDVHGFEKETLFFKNIASGSKGNCTLIWDSTDLIVIDLGITMKKFRDSIKSLDLAGRSISLFISHEHSDHIGGVPTTSKYVDMDVYMRPALSGSFRRKTYEMDGSLVVGNFEIRAFEIPHDAADPVGFSVLWHNRKISVVSDLGKVTDRVIESIRNSDILAFESNHDVEMLRTGSYPEALKRRILSDHGHLSNEQSAEAISRVATDDMRIILTHLSQENNRPEIALNEVKSYLENRNVRYRSIETADQYTGSSLYTLER | not soluble
20 | MSAGTRTQQQPPPKQRHPFQPACRLWCPLSPPSVLPFCASTCRPPPQDRQVRQCGGRIALRVAISPLSSSHSVLDGISHLASRMSDHADIDEAARKRLRAEAPFVSPLPLPPPAAPLLPCDASHNGESAEAAGHILVASAPPHKEDSVASTLHTSAKEARFEGRCMPPSFHSLLGEYEVPEEAKDVEDLVGGHEDFSDLPEARREALLQSVRTLVKKAAGASSAEQLEHLRVKGSRLHGFKDTARKSELTAAYRQLVREGAIAENAVVEALLIRKKGKSHSGVLVVTVFMGPGEFSCPKDCHYCPNQPGIARSYLLKEPGVLRGFRNGWDPISQFYDRASALENNGHVVDKIELIILGGTFSFYPQRYAEEFMTASFYAANTYYDSAPLRPMRSLAEELTLNEGARCRIIGITAETRPDYISARELRRFRSLGITRVQLGIQHLDDDILNLINRDCPTAKTVVAIQRLLDAGFKVDAHWMPDLPGSSFEKDMELFETLFSAENESFQVDQWKVYPTATVPFTKISEWYAQGQYKPYAELDNGAYMVKLLVYIMEHCPYRIRLNRIIRDIPTTYIMGGEKRCNLRQVIEAEMRARHIRCKDIRERECKGNPVDRANTHLFTDEFRASEGTEFYLSVENKDRTQLYGHLRLRLRDDASREESNILPVLRGCALVRELHTYGKLIAVSQQNTGRETQHVGVGTQLMREAERIAKERGYHRMAVIAGVGVRRYYAKLGYRLEDTYMVKELDEQASAITEDQVVQDDDNENSAYSSFLSTIKSFFGFHKNTP | not soluble
